Test results from patent publication US20120165244A1, “METHODS FOR BINDING LEWIS Y ANTIGEN” (priority 2008, published 2012).

How the values were obtained:
[1] = test system: E. coli DH5α; assay: Bacterial agglutination, FITC-labeled E. coli DH5α; conditions: 20 μg/mL protein, 5 mM CaCl2
Experimental: K. pneumoniae and E. coli DH5α (BCRC) were washed twice in 0.1 M sodium bicarbonate buffer (pH 9.6) and incubated with 0.1 mg/mL fluorescein isothiocyanate (FITC) at 37° C. in the dark. Each of 20 μg/mL of rTMD1, non-tagged rTMD1, mammalian rTMD1, and recombinant TM domains 2 and 3 (rTMD23) was co-incubated with FITC-labeled bacteria (1×10^5CFU/mL) in buffer (20 mM Tris, pH 7.4, 0.15 M NaCl, 5 mM CaCl2, 1 mg/mL BSA) with or without 0.2 M mannose or 5 mM EDTA. Samples were individually placed on a glass slide and fluorescently-labeled bacteria were observed microscopically to evaluate agglutination.

[2] = Half-life of rTMD1 in the circulation (sandwich ELISA); format: in vivo, Male FVB mice; conditions: mice
Experimental: Male FVB mice (8-10 weeks old) were used to model sepsis in vivo. The Institutional Animal Care and Use Committee of the National Cheng Kung University approved procedures. In the chronic endotoxemia model, various concentrations of rTMD1 or rTMD proteins in equi-molar amounts were administrated by tail intravenous (i.v.) injection and LPS (20 mg/kg) or K. pneumoniae (5×10^2 CFU/mouse, BCRC) was administrated by intraperitoneal (i.p.) injection. After 6 or 12 hours, mice were sacrificed by pentobarbital anesthesia (50 mg/kg; i.p.). […] The half-life of rTMD1 in the circulation was determined by i.v. injection of rTMD1 (10 mg/kg, equals 436.64 nmole/kg) and serum samples were collected at various time intervals. The levels of rTMD1 in the collected sera were determined by a sandwich ELISA which employed anti-c-Myc monoclonal antibody and TM-H300 as capture and detection antibodies (both from Santa Cruz Biotechnology), respectively. […] Mortality was monitored every 6-12 hours until all mice in either experimental group died. […] Serum samples were collected at various time intervals and the amount of LPS was determined by Limulus amebocyte lysate test (Associates of Cape Cod, E. Falmouth, Mass.). […] Outgrowth of K. pneumoniae was quantified by plating serial dilutions of blood samples on blood agar plates and enumerating colonies after overnight incubation at 37° C.

[3] = test system: RAW 264.7 cells; assay: LPS-induced TNF-α production in RAW 264.7 cells (ELISA); format: cell-based, murine
Experimental: Human leukemia monocytic THP-1 cells and murine macrophage cell line RAW 264.7 were obtained from the American Type Culture Collection. THP-1 cells were grown in suspension in RPMI-1640 supplemented with 10 mM HEPES, 1 mM sodium pyruvate, 0.1% β-mercaptoethanol, 100 U/ml penicillin, 100 µg/ml streptomycin, and 10% fetal bovine serum (FBS). RAW 264.7 cells were grown as an adhered layer in Dulbecco's modified Eagle's medium with 4 mM L-glutamine adjusted to contain 1.5 g/l sodium bicarbonate and 4.5 g/l glucose, 100 U/ml penicillin, […] streptomycin, and 10% FBS under a humidified 5% CO2 atmosphere at 37° C. For differentiation, THP-1 cells were plated in medium containing 10 nM PMA and allowed to adhere for 18 h.
(§1) TNF-α in conditioned medium or mouse serum was measured by an enzyme-linked immunosorbent assay (ELISA) (R&D Systems, Minneapolis, Minn.). Accumulation of nitrite in the medium or mouse serum was determined by a colorimetric assay using Griess reagent (Sigma-Aldrich). Blood urea nitrogen (BUN) and creatinine were measured with a Roche D&P modular (Roche Diagnostic Systems, Branchburg, N.J.). Assays were performed according to the manufacturer's protocol.

[4] = test system: K. pneumoniae; assay: K. pneumoniae (5×10^2 CFU/mouse) systemic sepsis model in mice; format: in vivo, Male FVB mice
Experimental: as §1
Male FVB mice (8-10 weeks old) were used to model sepsis in vivo. The Institutional Animal Care and Use Committee of the National Cheng Kung University approved procedures. In the chronic endotoxemia model, various concentrations of rTMD1 or rTMD proteins in equi-molar amounts were administrated by tail intravenous (i.v.) injection and LPS (20 mg/kg) or K. pneumoniae (5×10^2 CFU/mouse, BCRC) was administrated by intraperitoneal (i.p.) injection. After 6 or 12 hours, mice were sacrificed by pentobarbital anesthesia (50 mg/kg; i.p.). Sera were collected and assayed for TNF-α, NO, BUN, and creatinine, and lung and kidney tissues were removed, fixed with formalin, and embedded in paraffin for histochemical examination. In the lethal sepsis model, rTMD1 (2 mg/kg, equals 87.3 nmole/kg) was i.v.-administrated at 0, 6, 12, and 24 hours after i.p. administration of LPS (40 mg/kg). The half-life of rTMD1 in the circulation was determined by i.v. injection of rTMD1 (10 mg/kg, equals 436.64 nmole/kg) and serum samples were collected at various time intervals. The levels of rTMD1 in the collected sera were determined by a sandwich ELISA which employed anti-c-Myc monoclonal antibody and TM-H300 as capture and detection antibodies (both from Santa Cruz Biotechnology), respectively. […] Mortality was monitored every 6-12 hours until all mice in either experimental group died. Experimental procedure of determining LPS half-life is as following. LPS (20 mg/kg) was i.p.-administrated to male FVB mice without or with rTMD1 (10 mg/kg; i.v.). Serum samples were collected at various time intervals and the amount of LPS was determined by Limulus amebocyte lysate test (Associates of Cape Cod, E. Falmouth, Mass.). A further experiment was performed to determine whether rTMD1 affects bacterial clearance. K. pneumoniae (5×10^2 CFU/mouse) was i.p.-administrated to male FVB mice without or with rTMD1 (10 mg/kg; i.v.), and blood samples were collected at various time intervals. Outgrowth of K. pneumoniae was quantified by plating serial dilutions of blood samples on blood agar plates and enumerating colonies after overnight incubation at 37° C.

[5] = rTMD1 5-25 mg/kg i.v., 12 hours, 5×10^2 CFU

B1: rTMD1: recombinant human thrombomodulin N-terminal lectin-like domain (residues Ala1-Ala155) with 6×His tag and c-Myc epitope, Pichia pastoris expressed (protein)
chain: EFAPAEPQPGGSQCVEHDCFALYPGPATFLNASQICDGLRGHLMTVRSSVAADVISLLLNGDGGVGRRRLWIGLQLPPGCGDPKRLGPLRGFQWVTGDNNTSYSRWARLDLNGAPLCGPLCVAVSAAEATVPSEPIWEEQQCEVKADGFLCEFHFPAYLEDDDDKIEQKLISEEDLNSAVDHHHHHH
modifications: left off: small tags and cut ends
- agglutination of E. coli DH5α [1]: induced marked agglutination
- time detectable after each i.v. injection ([2]; i.v.): ≤ 12 h
- half-life in circulation ([2]; i.v. 10 mg/kg): 3 to 4 h
- TNF-α production in RAW 264.7 cells stimulated with LPS ([3]; pre-incubated with LPS, 6 hours incubation (FIG. 1A)): dose-dependently inhibited
- LPS-induced TNF-α production ([3]; various concentrations of LPS and rTMD1 (FIG. 1C)): dose-dependently inhibited
- survival, post-treatment ([4]; all rTMD1-treated groups vs infected mice without rTMD1): improved
- K. pneumoniae-induced TNF-α release, post-treatment ([4]; rTMD1 10 mg/kg i.v. immediately, 30 or 60 minutes after K. pneumoniae): effectively suppress
- NO production in K. pneumoniae-infected mice [4, 5]: effectively reduced
- TNF-α production in K. pneumoniae-infected mice [4, 5]: effectively reduced
